Source: patent US12365710B2, “HMGB1 protein derivatives for the removal of biofilms” (RESEARCH INSTITUTE AT NATIONWIDE CHILDREN'S HOSPITAL, priority 2018, dated 2025)

Tests used:
[1] = test system: biofilms present in CF sputum; assay: disruption of CF sputum (optical density of surrounding media); conditions: CF sputum suspensions in PBS, 37° C.; compared with Pulmozyme and anti-DNABII
Method: FIGS. 10A-10B: HMGB1 In specimens from biofilm-associated diseases. (FIG. 10A) Sections of OCT-embedded mucosal biomass from an NTHI-infected chinchilla middle ear were co-labeled for HMGB1 and DNABII protein for immunofluorescence microscopy. Double stranded eDNA was labeled with DAPI (white). (FIG. 10B) CF sputum incubated with antibiofilm treatments (PBS, 1:10 rabbit a-1HFEc, serum, 100 U/ml Pulmozyme® (DNase), 1 mM rHMGB1) at 37° C. for […] and optical density of surrounding media was measured at 0 hour and 2 hour.
HMGB1 disrupts biofilms present in clinical specimens: Biofilms at chronic disease sites (e.g. CF lung), consist of multiple species and by nature are difficult to eradicate. It has been shown that anti-DNABII antibodies to disrupt biofilms present in CF sputum.

NTHI biofilm = assay: in vitro disruption of established biofilms, CLSM and COMSTAT; format: cell-based, Nontypeable Haemophilus influenzae; conditions: 200 nM added at 24 h, 16 h exposure
Method: FIGS. 5A-5E: Anti-biofilm effect of HMGB1 variants on high priority bacterial pathogens. Indicated HMGB1 variants or antibodies against DNABII proteins (α-1HFEc 1gG, 1 μM) were added at 24 h to the respective preformed bacterial biofilms, in vitro. After 16 h of Incubation, biofilms were stained with LIVE/DEAD®, then visualized via confocal laser scanning microscopy. Images were analyzed by COMSTAT to calculate average thickness and comparison to control was plotted. (FIG. 5A) Full-length HMGB1 isoforms (200 nM unless otherwise indicated) added to UPEC, B. cenocepacia, NTHI, or ESKAPE pathogens. 800 nM rHMGB1 and 200 nM mHMGB1 were added for S. aureus (ESKAPE). 800 nM rHMGB1, 800 nM mHMGB1, or 3.3 μM of α-1HFEc 1gG were added for E. faecium (ESKAPE) and were incubated for 1 h as opposed to 16 h to avoid potential degradation by E. faecium proteases. (FIG. 5B) Representative images of UPEC biofilms incubated with increasing concentrations of rHMGB1. (FIG. 5C) Individual domains of HMGB1 (200 nM) were tested for anti-biofilm activity as above (dotted line indicates control values). Bars represent the SEM. Statistical significance compared to control was assessed with unpaired t-tests, *P<0.05. […] (FIGS. 5D-5E) HMGB1 and variants disrupt preformed Klebsiella pneumoniae biofilms. rHMGB1, HMGB1 C45S (mHMGB1), bovine HMGB1 (bHMGB1), B box, B Box C106S (mB Box), A Box, and A+B Box were added (200 nM) at 24 h to preformed K. pneumoniae biofilms. After 16 h of incubation, biofilms were stained with LIVE/DEAD®, then visualized via confocal laser scanning microscopy. Images were analyzed by COMSTAT to calculate average thickness and total biomass. Error bars represent the SEM. ***P<0.0001; ns=not significant.
HMGB1 disrupts pathogenic biofilms: To test the effect of HMGB1 on bacterial biofilms (FIG. 5), Applicant cloned (IMPACT®, NEB Ipswich, MA), expressed (in E. coli), and purified (heparin sepharose chromatography to >95% purity) tagless human recombinant HMGB1 (rHMGB1) and an engineered C45 S variant (mHMGB1) that mimics the reduced form of HMGB1. rHMGB1 readily forms an intramolecular disulfide bond between C23 and C45 that contributes to pro-inflammatory activity whereas mHMGB1 cannot. These HMGB1 isoforms were evaluated for ability to disrupt established biofilms (formed for 24 h prior to addition). After a 16 h exposure to a single dose of rHMGB1 (200 nM; ˜25-fold greater than typical sepsis serum concentration, but not able to directly induce sepsis), biofilms formed by a wide variety of high priority species were stained with LIVE/DEAD®, analyzed using confocal laser scanning microscopy (CLSM) and COMSTAT analysis and compared to control biofilms. […] Preliminary analysis of PTMs by LC-MS/MS analysis (MS Bioworks, LLC Ann Arbor, MI) indicated minimal modification of both rHMGB1 and nHMGB1 (<20% of the observed peptides had any given PTM, FIG. 1C). […] Thus, while there are intrinsic differences in sensitivity among pathogens, the biofilms formed by all of the tested high priority pathogens were susceptible to a single dose of these non-antimicrobial compounds.
HMGB1 domain structure and anti-biofilm activity: Applicant then produced recombinant HMGB1 truncation variants, of 1) the A Box, a self-contained DNA-binding domain (residues 1-89); 2) an A-B Boxes construct (lacks the C tail; residues 1-185); and 3) the B Box (residues 80 to 176, FIGS. 1A and 1C). […]

serum TNF-alpha (TNF-α) = format: in vivo, mice; conditions: 24 h; for serum TNF elicited on their own: 0.2 nmol endotoxin free protein i.p., naive mice; for additional pro-inflammatory signaling in LPS-primed mice: 0.2 nmol i.p. with LPS 5 mg/kg
Method: FIGS. 7A-7G: HMGB1 promotes clearance of S. cenocepaca from mice without inducing sepsis. C57BL/6 mice were challenged with 10^7 CFU intratracheally, and either simultaneously (prevention) or 24 h later (treatment) received 0.2 nmol of HMGB1 valiant. (FIG. 7A) Aggregates of B. cenocepacia were visible by fluorescence microscopy in lung sections probed with an α-B. cenocepacia antibody. For prevention, (FIG. 7B) bronchoalveolar lavage (BAL) collected 18 h post-inoculation (hpi) was analyzed for CFU. (FIG. 7C) Neutrophils in BAL were quantified by differential cell counting. (FIG. 7D) Lung tissue collected 72hpi was fixed, embedded, sectioned, and stained with hematoxylin & eosin (10× magnification). For treatment, 72hpi (FIG. 7E) CFUs were quantified in BAL. (FIG. 7F) Neutrophil recruitment was analyzed 24 h after intraperitoneal (i.p.) administration of HMGB1 valiants by fluorescence-activated cell sorting of peritoneal lavage stained with α-CD45, α-CD11b, and αLy-6G. (FIG. 7G) Serum TNF-α. was measured by ELISA in mice injected i.p. with 0.2 nmol HMGB1 valiants, 5 mg/kg LPS, or both. LoD: limit of detection. Bars represent SD. *P<0.05.
Mice were monitored for 24 h for signs of sepsis, then serum TNF-alpha (TNF-α) levels were measured by ELISA as a surrogate for sepsis induction. […] It has been reported, that compared to our doses, >450-fold for B Box alone, or 4 doses of 2-fold greater amounts of rHMGB1 in 40 h with lipopolysaccharide (LPS)-primed mice20 are required to induce sepsis. In addition, these endotoxin-free polypeptides were tested for anti-biofilm activity in vitro as described above and found to maintain full function against UPEC and Bc biofilms (data not shown).

| Molecule | disruption of CF sputum [1] | disruption of established NTHI biofilms (NTHI biofilm) | serum TNF elicited on their own (serum TNF-alpha (TNF-α)) | additional pro-inflammatory signaling in LPS-primed mice (serum TNF-alpha (TNF-α)) |
| --- | --- | --- | --- | --- |
| rHMGB1: tagless human recombinant full length HMGB1 (1-215) expressed in E. coli | can disrupt biofilms present in CF sputum | not as responsive | neither rHMGB1, B Box, nor mB Box elicited detectable TNF | none induced additional pro-inflammatory signaling |
| B-linker Box: HMGB1 B Box with N- and C-terminal linker (80-179; 80 to 176 in b258), 97 amino acid (protein, UniProt P09429 80-179, looked up, fragment) PPKGETKKKFKDPNAPKRPPSAFFLFCSEYRPKIKGEHPGLSIGDVAKKLGEMWNNTAADDKQPYEKKAAKLKEKYEKDIAAYRAKGKPDAAKKGVVKAE | disrupted sputum effectively | retained full anti-biofilm activity | neither rHMGB1, B Box, nor mB Box elicited detectable TNF | none induced additional pro-inflammatory signaling |
